# From PMC8938434, “Atomic resolution dynamics of cohesive interactions in phase-separated Nup98 FG domains” (Nature Communications, 2022)
# T1: prf.GLFG_(52 × 12)
# T1 construct: engineered from the Tetrahymena thermophila MacNup98A FG domain; plasmid pSNG064; Isotope-labelled (15N, 13C) for NMR; also called perfect repeat; source: E. coli, inclusion bodies, Ni(II) chelate column, tag cut off with bdSENP1 protease, lyophilized; not shown: His14-ZZ-scSUMO, N-terminal, cleaved
# T1 chain: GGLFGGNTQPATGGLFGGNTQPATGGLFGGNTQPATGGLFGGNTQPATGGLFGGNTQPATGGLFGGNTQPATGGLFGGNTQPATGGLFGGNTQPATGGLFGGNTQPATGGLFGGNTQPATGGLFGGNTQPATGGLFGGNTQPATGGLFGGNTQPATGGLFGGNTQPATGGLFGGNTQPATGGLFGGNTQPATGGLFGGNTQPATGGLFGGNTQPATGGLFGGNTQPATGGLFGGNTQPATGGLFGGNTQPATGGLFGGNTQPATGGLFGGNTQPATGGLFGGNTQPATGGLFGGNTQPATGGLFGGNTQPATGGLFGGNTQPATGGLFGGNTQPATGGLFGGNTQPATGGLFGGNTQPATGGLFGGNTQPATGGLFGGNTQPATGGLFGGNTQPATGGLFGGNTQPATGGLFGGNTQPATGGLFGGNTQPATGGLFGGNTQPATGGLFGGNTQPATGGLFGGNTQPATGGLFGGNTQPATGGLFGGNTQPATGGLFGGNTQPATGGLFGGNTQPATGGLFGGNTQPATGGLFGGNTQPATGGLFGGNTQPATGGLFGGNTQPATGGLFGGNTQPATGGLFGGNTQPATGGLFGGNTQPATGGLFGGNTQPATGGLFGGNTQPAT
# Experiments:
# [1] = target: wild-type Tetrahymena thermophila MacNup98A (Mac98A) FG domain (Tetrahymena thermophila); experiment: partition of fluorescent probes into FG particles (confocal laser scanning microscopy); FG particles mixed with permeation probes (2 μM Alexa488-labelled NTF2 and 10 μM mCherry in assay buffer, 15 μl + 15 μl); 20 mM NaPi pH 6.8, 150 mM NaCl, 5 mM DTT; 21 °C; partition coefficient = signal inside FG phase: signal in buffer
# [2] = target: the molecule itself; experiment: MAS NMR, 1H-13C cross-polarization of the FG phase; FG phase from u-[13C,15N]-labelled protein, 36 °C, 20 kHz MAS; cross-polarization against direct excitation
# prf.GLFG_(52 × 12) = target: T1, prf.GLFG_(52 × 12); experiment: partition of Atto488-coupled FG domains into FG particles (confocal laser scanning microscopy); 20 μM unlabelled prf.GLFG_(52 × 12) premixed with 0.5 μM Atto488-labelled species (GAFG: 3 μM); 20 mM NaPi pH 6.8, 150 mM NaCl, 5 mM DTT; 21 °C; apparent partition coefficient = Atto488 signal IN: OUT of the FG particles; settings: both partners purified
# Chain of nuclear transport receptor NTF2 (labelled with Alexa Fluor 488) (P61970 whole entry): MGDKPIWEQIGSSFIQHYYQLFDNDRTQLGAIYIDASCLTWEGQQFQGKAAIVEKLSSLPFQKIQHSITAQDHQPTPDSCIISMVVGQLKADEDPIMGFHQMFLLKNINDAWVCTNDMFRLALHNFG
molecule,measurement,setting,value
nuclear transport receptor NTF2 (labelled with Alexa Fluor 488) (from UniProt P61970 1-127) (natural protein),partition coefficient,[1],2000
"Pro-free prf.GLFG_(52 × 12) (other, also called thioflavin-T-positive, proline-free variant of prf.GLFG_(52 × 12)) GGLFGGATNSQTGGLFGGATNSQTGGLFGGATNSQTGGLFGGATNSQTGGLFGGATNSQTGGLFGGATNSQTGGLFGGATNSQTGGLFGGATNSQTGGLFGGATNSQTGGLFGGATNSQTGGLFGGATNSQTGGLFGGATNSQTGGLFGGATNSQTGGLFGGATNSQTGGLFGGATNSQTGGLFGGATNSQTGGLFGGATNSQTGGLFGGATNSQTGGLFGGATNSQTGGLFGGATNSQTGGLFGGATNSQTGGLFGGATNSQTGGLFGGATNSQTGGLFGGATNSQTGGLFGGATNSQTGGLFGGATNSQTGGLFGGATNSQTGGLFGGATNSQTGGLFGGATNSQTGGLFGGATNSQTGGLFGGATNSQTGGLFGGATNSQTGGLFGGATNSQTGGLFGGATNSQTGGLFGGATNSQTGGLFGGATNSQTGGLFGGATNSQTGGLFGGATNSQTGGLFGGATNSQTGGLFGGATNSQTGGLFGGATNSQTGGLFGGATNSQTGGLFGGATNSQTGGLFGGATNSQTGGLFGGATNSQTGGLFGGATNSQTGGLFGGATNSQTGGLFGGATNSQTGGLFGGATNSQTGGLFGGATNSQTGGLFGGATNSQTGGLFGGATNSQT",binding result,[2],binds
"Atto488-coupled GLLG//L_(52 × 12) (other, Atto488 (coupled)) GSGLLGNTGLAPAGGLLGNTQLQQGGGLLGQPQLTQGGGLLGQTGLTTGGGLLGGATLTAPGGLLGGGGLNPTGGLLGGNNLQQTGGLLGQGTLQTGGGLLGAPQLNQGGGLLGGGTLTTGGGLLGANTLTGGGGLLGGPSLPTTAGLLGSNNLTTGGGLLGQPALTNNGGLLGGQTLNQASGLLGANNLPPTNGLLGNNNLPQTAGLLGGATLTGNTGLLGGANLTGGGGLLGNNTLNPTGGLLGATNLAGGGGLLGGGALTGGGGLLGGGNLQTGGGLLGTANLTTAGGLLGGGNLQPQNGLLGNNNLPATGGLLGQTNLAAPQGLLGGTNLNAASGLLGQKPLSANGVLTKPNEKNLCYAISNGTDFCIFELALTQRKLVKAGQLKPGAQAGGLLGQPALNTQGGLLGGGGLATTPGLLGGAQLNTTGGLLGGQNLQAGGGLLGAPNLAAATGLLGAGNLNTQGGLLGAKPLATGGGLLGQPALTQAGGLLGNTALPAGGGLLGGATLTPGGGLLGGNTLATGGGLLGGNTLGATGGLLGGQQLNNQGGLLGNTNLNTGGGLLGGATLTTGGGLLGGSTLATGGGLLGGASLPAAGGLLGGAALQQNSGLLGGATLGQTGGLLGGATLQQGGGLLGQTALNPGGGLLGAANLTTQPGLLGGNNLAATTSC",partition coefficient,prf.GLFG_(52 × 12),110
